Test results published in the DeepSol protein solubility set.

Assay: soluble on expression in E. coli; label from the status in PepcDB or PDB records

Sequence | soluble on expression in E. coli
MSLKNPPQILMPDVVYTDLKKPILVHIKDDESSIKNVQIILHKDDNTSAMVIADEKISNLKDITLQVALPKFGYKENVKSFVLEVIAKDSSFWNFFSGNEARKQIAVLVDNTAPKINIISNSYQIEQGGAGAVVFKADDANLDKVYIETNKGKIFKATPYVKEGYYAALIAWDARDEEFRAFVIATDKAGNISKERIRYYFVNRKYRVSNINLTDKFLDGKIENLANQYAPKDNNLNRYEKFKFVNETLRNSNEKLIHEITSKVPEEKIDNFDLNLFLPLKNGMKVADFADHRYYSYNGQFVSDSYHMGLDLASVAQAPIISNNAGKVVFAAENGIYGLNLIVYHGFGVYSLYGHCSSKNVDLDEMINKQSIIGKTGTSGLALGDHLHFGVLVQGVETRPEQWQDKKWIENNIYNVLNDGKKIILGKNEGHHHHHH | soluble
SSNVIIMGHKFPDMDSIGAAIGILKVAQANNKDGFIVIDPNQIGSSVQRLIGEIKKYEELWSRFITPEEAMEISNDDTLLVIVDTHKPSLVMEERLVNKIEHIVVIDHHRRGEEFIRDPLLVYMEPYASSTAELVTELLEYQPKRLKINMIEATALLAGIIVDTKSFSLRTGSRTFDAASYLRAKGADTVLVQKFLKETV | not soluble
MSLRIKVCGIKRVEDAVMAAYCGADAIGLVVGRKHNSDDFIDKHLAQKIVRECPPYISPVLVTELDDAEEISGLVHETGVTSVQLHSDCTVDSIISLRKTFPNIKIIKNFHVIGPGVIHAMKPFESVVDAFILDTLDLANDKVGSTGLVHDWSISRKIVKEVSRPVILAGGLTPENVGEAIRVVNPYGVDASSGLKDSNGFKDEMKVINFVHRAKNDFFKVRNLSLENEGHHHHHH | soluble
MKSLQIYLFLFLSVFALGACIQNDIPYPYIKGEITAFEVEGQTGDAEINKNSRTIVVEVGDEVDIEELRITRFVVNEEATYSIDEQYCVSPNKFPSAGFSALADLPAGADTRVDFSKTVPVLLRTYQDYQWMITVKQTIERVVEVENQALPAIIDDKNHTVLVYVSQKQDLSAVKITKMILGGSKATITPDPSTVTNFRRPQEFVVNRFDKEELWTVDVVRTTSTGTTGSADVWATRATLNGGMKQGTTPRVEYRKKSEDTWTVVPETDVKLESGTTFSTTLTGLQDGTDYVWRVVVEEVPSTESGFTTEKIQEIPNLNFDTWSQNPTGTFKKSWYPNADGSNSFWATGNDGVTSSLAGSRDSSTRPEEKSVVNGKAAYMVTLGSVPLVGVAAGNLFIGDYKTNAQSPKDSPKFGRSFTGARPTGLKGWYKYTSKPVDYVGNPDNLKNDECHIYLRLWDDKDNEIGYGEFIGKETVTQYTQFRFDVTYTNKTAKPAKITIVATSSHYGGDFTGMKVTGSVGVGSELWVDEFELLYELEHHHHHH | soluble
STHSELMEKFLTDYLNDLQGRNDDDASGTWDFYGSSVCEPDDESGYDVLANPPGPEDQDDDDDAYSDVFEFEFSETPLLPCYNIQVSVAQGPRNWLLLSDVLKKLKMSSRIFRCNFPNVEIVTIAEAEFYRQVSASLLFSCSKDLEAFNPESKELLDLVEFTNEIQTLLGSSVEWLHPSDLASDNYW | soluble
MSLKAIKNGTILTGTGETIKQGTLLIQDGKVLEVGQRVDTPANAKLIDATGKYVTPGLIDVHTHIGVFSEGLGRTGHDFNETTAAATPYIRAIDGIYPFDQGFEDARQSGVTTVQIMPGSANVIGGEMVTVKTAGTVVDEMIVRAPSGMKAAFGENPKNVHGGKGKLPATRMGVAALFRQQLYQAQDYLKRFEKGELEKRDLGMEQLAKVLRKEIPLRVHAHRADDIATVLRMVDEFDLEATIEHCTEGHLIADHIAKYNVKVSVGPTMTSRTKQELVNKGWHTLIELEKHGIPFSITTDHPVVTINHLVTSAIQAVKAGLSEQSAFQAITLRAAEHIGVEQQVGSLEKGKDGDFVIWSDHPFTATAQVEATYINGKCVTGSHCEGHHHHHH | soluble
LKSADHGGRLAYDNGRYGDGDGLTQNGGVNGGLRFGESGFLNLSAQFREQARTIRAGIDQRTGHYGNPSIGDPSLHRQALAYNAGVALDDNVELYSFATYTHRSVSSAQIYQLPSLAPRLYPNGFTPRITSDEDDYSLTLGARGGELFGAWDWDLSSTYGADRPEIGMDHSINLALYGETGDSPRSFDLARYKATQWTNNLDLRRDFDLAWLPAPLNFSWGLEQRRELYEVEAGDPWSYYNGGSKALPGQAPATAGQWSRDVLGAYLDLSIALDERWQLETAARYEHYSDFGSTTNGKLASRYRFSPEVSARASLSSGFRAPSLAQENYTS | not soluble
MGGHHHHHHGENLYFQGISSETGEMGILWEFDPIINKWIRLSMKLKVERKPFAEGALREAYHTVSLGVGTDENYPLGTTTKLFPPIEMISPISKNNEAMTQLKNGTKFVLKLYKKEAEQQASRELYFEDVKMQMVCRDWGNKFNQKKPPKKIEFLMSWVVELIDRSPSSNGQPILCSIEPLLVGEFKKNNSNYGAVLTNRSTPQAFSHFTYELSNKQMIVVDIQGVDDLYTDPQIHTPDGKGFGLGNLGKAGINKFITTHKCNAVCALLDLDVKLGGVLSGNNKKQLQQGTMVMPDILPELMPSDNT | soluble
MLDLQISKKTVDPLKRPPHSVEAEQSIIGGLMLDNQVWDKVSNKLCETDFYRTEHRILFRAISALAKKDQPFDVVTLLDALKTRNELDDAGGEAYLFELANNTPSVANVTAYADIVREKSVQRQLIAVATEIADSAYNPAGREVPELLDMAETKVFAIGEQTASDGGPENIKSILVRAVEKIDALYHNGDAITGLATGLSDLDEMTSGLQPSDLIIVAGRPSMGKTTLVMNMAEHAAIKAGKPVLVFSMEMPADSLAMRMMSSLGRIDQHRIRTGKLDDNDWPRVTSAVHMLSEAPLFIDDTPALSPGEMRARARRLAKEHGSLGLIVVDYLQLMKVPGFNADNRTAEISEISRSLKSLAKELQVPVIALSQLNRSLEQRADKRPVMSDLRESGAIEQDADLICFIYRDEVYNEDSPDKGTAEIIVAKQRNGPIGKVRVAFLGKYTRFEDLAFNGYQGVE | not soluble
MSLDDFCNIPKGKEVVFGFNVPQSGAYADEGMDELKAYQLAVKHLNGEGDGGMLKTMKPLALKGNGVLGKKVTFVSGDTQTKADQARATAKRMIEKDGAIMITGGSSSAEAVAVQSLCQDVGVIFMAGLTHSNDTTGKDKRAYGFRHFFNAYMSGVALGPVLAEAYGKDRAAYHLTADYTWGWTQEESMKDATEKQGWKTVKAVRTPLGAADFSQYITPVLNSGADVLILNHYGKDMINSLTQAVQFGLRDKMANGKKFEIVVPLFSELMAQGAGDAIKGIYGTANWDWKLEDAATSAFTKSFGAAYGTPPSQAAQTCYVQAILYADAVERAGTFNPSKVIAALEGFEFDGLGNGKTLYRAADHQCFKDVLVVQGKEKPKEGHHHHHH | not soluble
MSQLVLDLKCLKDKIATNYDIHNNVYGGNGMEPNIIHPSKRFRIVVRLVDFLFCKSDEEFIKGFFCQMIVRNLHCLNSTNGAEEMRLYMSERLFSAHKDDLRLINGQVLDVRIGVWYGIHQSPPIFEIIDFKILSRNDVRDFCEFVKSPLGEKFLNISNS | not soluble
MSLRTPYEEVRDFFHFVDNYVAEIDLLAEELAQELEIEGGETYGILAAHLRSLYGIHITRTEAAGGLIRHFDPAGKTLALSSYMAAPTRCFQLALQIAQLHAGATVDRVLAGAGFRNAEAAEICRIGLHNYFAAALILPYGQFHRAAQELRHDLELLAVRFGASLEQVAHRLSTLQRPGMKGVPIFFAKIDRAGNITKRHSATRLQFARFGAACPLWNIHQAFESSDRIVRQLAETPDGVRYLSIATQIEKAGAGFNTERPRYAIALGCEISHAQNFVYADTLDLGNAASFKPIGISCRVCERVDCVQRAVPPLKRKLHFDHLSRGALPYQIAEGHHHHHH | soluble
MLAAGEGKRMGACKPLLPLGASTVLAHVAKTLLPAINGPLVVVTGHHGDAVTAEALRLSLETAENTTPQDGMFSSVRTGIAHIVGRVDGVLVLPADIPFVRTATCALVVEAFRRHRAAVTYPTLCGERGHPPLLDADTMRAVLASSGDGGLRGVLLALERQGGTTHDVAVADEGIVTDMDTPADHAQLVARHPLRHIPTPREREALLEMAGTPARVRAHCRMVARAALAMAAHLEATRRGFISPFARQSAPHGISTSGAHAEPRSVPASTTTHAVHAEGNTTLPHTATAHVACPPPDVTTGPMPTCQPGHMPDHMPGTARDAAQQAPAATASPQRLDRPLIHAAATLHDICKGTQRHEAAGGALLTRHGFPEVGSIIAAHRDIAPQAGPEIDEAALVMLADKYVRGVSLIPVEERFDERLREWAHRPDVACDIAARKARVLMVRDLFESETATELFPLLQRKVRRGTFLEHHHHHH | not soluble
MSTKMTPPVEKNEFIDVVFEDLTHDGAGVAKVKGYPIFVKNGLPGEEAQIKIIKVKKNFAFGRLMKLHTESPYRKDAECPVYNQCGGCQLQHLTYEGQLQAKEKQVRDVMQRIGGLADVPVHPVLGMKNPWVYRNKAQVPIGEREGGLVAGFYRQGTHDIINMESCLIQAEENDTLIQEVKRICEKHGITAYNEERNKGTLRHVMARYGQVTGEIMLVFITRTAELPNKKAIIEEIAAKFPEVKSIVQNVNTKRTNVIFGDKTTVLYGSEYIYDFIGDIKFAISARSFYQVNPEQTKVLYDKTLEYAKLNGNETVIDAYCGIGSISLFLAQKAKKVYGVEIVPEAIEDANRNAALNNMTNAEFGVGEAEVVIPKWYKEGVIADTMVVDPPRKGCDEALLNTIIDMKPNRVVYVSCNPATLARDLKVLEEGGYKTQEVQPVDMFPHTTHVECVAWLKLV | not soluble
EMYHHKKVLVLGLARSGVSAATIMHKLGAFVTVNDQKPFSENPEAQGLLEQGIKVICGSHPIELLDEGFELVIKNPGIPYNNPMIEKALKLKIPVI | not soluble
MGSDKIHHHHHHMVMGDITRIDTVQQYCDLFEVEALHPLVSVVNCYEVQPIRHSKKLYNIYAVLLKDTDCGTMNYGRSLYDYEKGSMLFIAPGQVMGSDDDGSLHQPAGWALMFHPELLRGTSLAHIIKEYSYFSYNANEALHLSEQERKVVIECINNVAEELRHPIDKHSRSLIIDTMKLLLDRCIRFYDRQFITRENANNDLLARFELLLNNYYHSALPTSKGIPTVQYCADQLCLSTNYFSDLVKKETGMSAIKHIQQKIMDIAKERIMNTQKSISQISDEMGFQYPQHFTRWFKKMEGCTPNEYRNEIIKQAIN | not soluble
MRVLGIETSCDETGIAVYDDKAGLLANQLYSQVKLHADYGGVVPELASRDHVRKTVPLIQAALKEANLSAKDIDAVAYTAGPGLVGALLVGATIGRALAFAWGVPAVPVHHMEGHLLAPMLEENAPEFPFVALLVSGGHTQLISVTGIGEYLLLGESVDDAAGEAFDKTAKLLGLDYPGGPMLSRMAQQGTVGRFTFPRPMTDRPGLDFSFSGLKTFAANTIRANGDDDQTRADIARAFEDAVVDTLAIKSKRALDQTGFKRLVIAGGVSANQTLRLKLADMMQKRGGEVFYARPEFCTDNGAMIAYAGMVRLRSNLNSELSVSVRPRWPLSELPKV | not soluble
MFIPSIYLHQQLHYCKTAILNWSRKMALSRQKFTFERLRRFTLPEGKKQTFLWDADVTTLACRATSGAKAFVFQSVYAGKTLRMTIGNINDWKIDDARAEARRLQTLIDTGIDPRIAKAVKIAEAESLQAESRKTKVTFSVAWEDYLQELRTGISAKTKRPYSTRYIADHINLSSRGGESKKRGQGPTSAGPLASLLNLPLSELTPDYIAAWLSTERQNRPTVTAHAYRLLRAFIKWSNYQKKYQGIIPGDLAQDYNVRKMVPVSASKADDCLQKEQLKSWFSAVRSLNNPIASAYLQVLLLTGARREEIASLRWSDVDFKWSSMRIKDKIEGERIIPLTPYVSELLNVLAQSPNSDVNKEGWVFRSNSKSGKIIEPRSAHNRALVLAELPHISLHGLRRSFGTLAEWVEVPTGIVAQIMGHKPSALAEKHYRRRPLDLLRKWHEKIETWILNEAGITIKNNVDMR | soluble
